# Results published in patent publication US11352401.
# Biological target: T1, HLA-A*02 (human)
# T1 construct: MHC monomer made peptide-receptive by UV cleavage of a UV-sensitive ligand; also called peptide-receptive MHC class I monomer
# Experiment: UV peptide-exchange ELISA; ++++ = yield >75%
row,Binder,peptide exchange yield [%]
1,FLDPNARPLV [FLDPNARPLV (SEQ ID NO: 117)],> 75
2,LQSSGLTLLL [LQSSGLTLLL (SEQ ID NO: 98)],> 75
3,FIIDTTYPAYV [FIIDTTYPAYV (SEQ ID NO: 106)],> 75
4,HLVGGLHTV [HLVGGLHTV (SEQ ID NO: 96)],> 75
5,VLALVNSTV [VLALVNSTV (SEQ ID NO: 97)],> 75
6,ILDERQVLL [ILDERQVLL (SEQ ID NO: 114)],> 75
7,ALLANLPAV [ALLANLPAV (SEQ ID NO: 120)],> 75
8,FLKEKVPGI [FLKEKVPGI (SEQ ID NO: 99)],> 75
9,ALVDTLTGI [ALVDTLTGI (SEQ ID NO: 121)],> 75
10,GLDGSLVFL [GLDGSLVFL (SEQ ID NO: 127)],> 75
11,VLMEENSKL [VLMEENSKL (SEQ ID NO: 116)],> 75
12,FLSTVTSV [FLSTVTSV (SEQ ID NO: 126)],> 75
13,LLADFQALL [LLADFQALL (SEQ ID NO: 110)],> 75
14,LLQGAIESV [LLQGAIESV (SEQ ID NO: 107)],> 75
15,FLYYPDPVL [FLYYPDPVL (SEQ ID NO: 103)],> 75
16,ALLEMFPEITV [ALLEMFPEITV (SEQ ID NO: 122)],> 75
17,LLLGSIGLLGV [LLLGSIGLLGV (SEQ ID NO: 109)],> 75
18,SVASVLLYL [SVASVLLYL (SEQ ID NO: 124)],> 75
19,SLLEQAIAL [SLLEQAIAL (SEQ ID NO: 102)],> 75
20,MLLETQDALYV [MLLETQDALYV (SEQ ID NO: 115)],> 75
21,AVLTGLVEV [AVLTGLVEV (SEQ ID NO: 113)],> 75
22,RQYPTPFQL [RQYPTPFQL (SEQ ID NO: 100)],> 75
23,ALSSVLHSI [ALSSVLHSI (SEQ ID NO: 118)],> 75
24,VLQPFLPSI [VLQPFLPSI (SEQ ID NO: 125)],> 75
25,ITIGVLARV [ITIGVLARV (SEQ ID NO: 95)],> 75
26,RTADITVTV [RTADITVTV (SEQ ID NO: 119)],> 75
27,GMLDIFWGV [GMLDIFWGV (SEQ ID NO: 104)],> 75
28,SVSDGIHSV [SVSDGIHSV (SEQ ID NO: 112)],> 75
29,FLGTTPTL [FLGTTPTL (SEQ ID NO: 128)],> 75
30,SLLTHIPTA [SLLTHIPTA (SEQ ID NO: 105)],> 75
